In assay [1] the target is CD43 expressed on the surface of COLO 205 colorectal cancer cells (human) (UniProt P16150). Kind of assay: flow cytometry on COLO 205 cells. Background: In flow cytometry, cells or beads pass a laser one at a time.
Assay [2] has as its target CD43 on human peripheral T cells (human) (UniProt P16150). Kind of assay: flow cytometry on peripheral T cells.
Assay [3] deals with CD43 expressed on the surface of COLO 205 colorectal cancer cells (human) (UniProt P16150). Kind of assay: flow cytometry on COLO 205 cells; signal of biotinylated 5F1 (1 microgram/ml, competitor) with unlabeled antibody at 0.03 microgram/ml.
For assay [4] the target is unchanged. Kind of assay: flow cytometry on COLO 205 cells; signal of biotinylated 5F1 (1 microgram/ml, competitor) with unlabeled antibody at 66.7 microgram/ml.
Assay [5] has as its target CD43 expressed on the surface of NCI-N87 gastric cancer cells (human) (UniProt P16150). Kind of assay: flow cytometry on NCI-N87 cells.
Assay [6] addresses CD43 expressed on the surface of COLO 205 colorectal cancer cells (human) (UniProt P16150). Kind of assay: flow cytometry on COLO 205 cells; signal of biotinylated 5F1 (1 microgram/ml, competitor) with unlabeled antibody at 0.82 microgram/ml.
In assay [7] the target is T1, 5F1-01-2-21 (also: fused to unnamed carrier protein, order not given here).
T1 construct: Tested as a fusion to an unnamed carrier protein; not shown: the unnamed carrier protein to which the 12-mer was fused (and any linker to it)
T1 peptide: WPIDLMSETPIL
Kind of assay: sandwich ELISA, 5F1 coated, peptide-carrier fusion. As for the experimental part: (§1) To further confirm the tripeptide epitope that antibody 5F1 binds, Sandwich ELISA was performed. 96-well microtiter plates were coated with antibody (5F1 or control antibody 9E10) with 50 μl per well at the concentration of 1 μg/ml over night at 4° C. Plates were blocked by incubation with 0.25% of BSA in PBS (150 μl/well) for 1 hour at 37° C. Plates were then incubated with fusion proteins containing various fragments of polypeptides fused to a carrier protein for 2 hours at room temperature. After washing 4 times with PBS containing 0.05% of Tween 20, plates were then incubated with carrier protein-specific antibody at 2 μg/ml for 1.5 hours at room temperature. After incubation, plates were washed 4 times with PBST. 50 μl of 1 to 3000 diluted Goat anti-carrier protein-specific antibody conjugated with HRP was then added to each well and the plates were incubated for 1 hour at 37° C. Enzyme reaction was carried out by adding substrate of the HRP enzyme to determine the reactivity of the designated polypeptide to these to these two antibodies (5F1 and 9E10). […] Monoclonal antibody 5F1 recognized a tripeptide WPI epitope structure.
(In general: ELISA stands for enzyme-linked immunosorbent assay.)

Assay [8] concerns the target T2, 5F1-01-2-17 (also: fused to unnamed carrier protein).
T2 construct: Tested as a fusion to an unnamed carrier protein; not shown: the unnamed carrier protein to which the 12-mer was fused (and any linker to it)
T2 peptide: WPILDHAVSRPS
Kind of assay: sandwich ELISA, 5F1 coated, peptide-carrier fusion. The procedure: as §1

In assay [9] the target is T3, 5F1-01-2-14.
T3 construct: Tested as a fusion to an unnamed carrier protein
T3 peptide: WPIHSAHVRYTT
Kind of assay: sandwich ELISA, 5F1 coated, peptide-carrier fusion. As for the experimental part:
as §1

The target in assay [10] is T4, 5F1-01-2-06 (also: fused to unnamed carrier protein).
T4 construct: Tested as a fusion to an unnamed carrier protein; not shown: the unnamed carrier protein to which the 12-mer was fused (and any linker to it)
T4 peptide: WPIPPEVEPFKH
Kind of assay: sandwich ELISA, 5F1 coated, peptide-carrier fusion. As for the experimental part: as §1

For assay [11], the target named is T5, 5F1-01-2-16 (also: fused to unnamed carrier protein).
T5 construct: Tested as a fusion to an unnamed carrier protein; not shown: the unnamed carrier protein to which the 12-mer was fused (and any linker to it)
T5 peptide: WPIDIPYAWDFS
Kind of assay: sandwich ELISA, 5F1 coated, peptide-carrier fusion. As for the experimental part: as §1

Assay [12] deals with T6, 5F1-01-2-09 (also: fused to unnamed carrier protein).
T6 construct: Tested as a fusion to an unnamed carrier protein; not shown: the unnamed carrier protein to which the 12-mer was fused (and any linker to it)
T6 peptide: WPIAPNRYLLSS
Kind of assay: sandwich ELISA, 5F1 coated, peptide-carrier fusion. As for the experimental part: as §1

In assay [13] the target is T7, 5F1-01-2-18 (also: fused to unnamed carrier protein).
T7 construct: Tested as a fusion to an unnamed carrier protein; not shown: the unnamed carrier protein to which the 12-mer was fused (and any linker to it)
T7 peptide: WPISGKHSFWSL
Kind of assay: sandwich ELISA, 5F1 coated, peptide-carrier fusion. As for the experimental part: as §1

Assay [14] addresses T8, 5F1-01-2-13 (also: fused to unnamed carrier protein).
T8 construct: Tested as a fusion to an unnamed carrier protein; not shown: the unnamed carrier protein to which the 12-mer was fused (and any linker to it)
T8 peptide: WPISPQPGARPV
Kind of assay: sandwich ELISA, 5F1 coated, peptide-carrier fusion. The procedure:
as §1

Assay [15] has as its target T9, 5F1-01-2-22.
T9 construct: Tested as a fusion to an unnamed carrier protein
T9 peptide: WPITNSDSRITW
Kind of assay: sandwich ELISA, 5F1 coated, peptide-carrier fusion. The procedure: as §1

In assay [16] the target is CD43 on Jurkat cells (lymphoblastoid leukemia cell line; ATCC TIB-152) (human) (UniProt P16150). Kind of assay: flow cytometry on Jurkat cells.
Assay [17] concerns the target CD43 expressed on the surface of COLO 205 colorectal cancer cells (human) (UniProt P16150). Kind of assay: flow cytometry on COLO 205 cells; signal of biotinylated 5F1 (1 microgram/ml, competitor) with unlabeled antibody at 200 microgram/ml.
Assay [18] shares this target. Kind of assay: flow cytometry on COLO 205 cells; signal of biotinylated 5F1 (1 microgram/ml, competitor) with unlabeled antibody at 22.2 microgram/ml.
Assay [19] has the same target. Kind of assay: flow cytometry on COLO 205 cells; signal of biotinylated 5F1 (1 microgram/ml, competitor) with unlabeled antibody at 2.46 microgram/ml.
Assay [20] has the same target. Kind of assay: cell-based or functional assay.
Assay [21] addresses T10, 5F1-01-2-23.
T10 construct: Tested as a fusion to an unnamed carrier protein
T10 peptide: WPIPTLMELPSA
Kind of assay: sandwich ELISA, 5F1 coated, peptide-carrier fusion.

The target of assay [22] is T11, 5F1-01-2-04 (also: fused to unnamed carrier protein).
T11 construct: Tested as a fusion to an unnamed carrier protein; not shown: the unnamed carrier protein to which the 12-mer was fused (and any linker to it)
T11 peptide: WPIANHENALSA
Kind of assay: sandwich ELISA, 5F1 coated, peptide-carrier fusion.

Assay [23] deals with T12, 9F9-01-03-25.
T12 construct: Tested as a fusion to an unnamed carrier protein
T12 peptide: EPNMDPNWASPS
Kind of assay: sandwich ELISA, 5F1 coated, peptide-carrier fusion.

The target in assay [24] is T13, 9F9-01-03-21.
T13 construct: Tested as a fusion to an unnamed carrier protein
T13 peptide: YDHHWTNPPTQK
Kind of assay: sandwich ELISA, 5F1 coated, peptide-carrier fusion.

For assay [25], the target named is T14, 9F9-01-03-18.
T14 construct: Tested as a fusion to an unnamed carrier protein
T14 peptide: DARYSHDPAWPY
Kind of assay: sandwich ELISA, 5F1 coated, peptide-carrier fusion.

Assay [26] addresses T15, 9F9-01-03-17.
T15 construct: Tested as a fusion to an unnamed carrier protein
T15 peptide: AGQKWDPEWPHS
Kind of assay: sandwich ELISA, 5F1 coated, peptide-carrier fusion.

Assay [27] concerns the target T16, 9F9-01-03-24.
T16 construct: Tested as a fusion to an unnamed carrier protein
T16 peptide: AETDYDPDHFTP
Kind of assay: sandwich ELISA, 5F1 coated, peptide-carrier fusion.

The target of assay [28] is CD43 expressed on the surface of COLO 205 colorectal cancer cells (human) (UniProt P16150). Kind of assay: flow cytometry on COLO 205 cells; signal of biotinylated 5F1 (1 microgram/ml, competitor) with unlabeled antibody at 0.09 microgram/ml.
Assay [29] shares this target. Kind of assay: flow cytometry on COLO 205 cells; signal of biotinylated 5F1 (1 microgram/ml, competitor) with unlabeled antibody at 0.273 microgram/ml.
For assay [30] the target is unchanged. Kind of assay: flow cytometry on COLO 205 cells; signal of biotinylated 5F1 (1 microgram/ml, competitor) with unlabeled antibody at 7.4 microgram/ml.

No end group written: not given here. Bounds are passed on as bounds.

CD43 expressed on the surface of COLO 205 colorectal cancer cells (human), sequence (P16150 20-400): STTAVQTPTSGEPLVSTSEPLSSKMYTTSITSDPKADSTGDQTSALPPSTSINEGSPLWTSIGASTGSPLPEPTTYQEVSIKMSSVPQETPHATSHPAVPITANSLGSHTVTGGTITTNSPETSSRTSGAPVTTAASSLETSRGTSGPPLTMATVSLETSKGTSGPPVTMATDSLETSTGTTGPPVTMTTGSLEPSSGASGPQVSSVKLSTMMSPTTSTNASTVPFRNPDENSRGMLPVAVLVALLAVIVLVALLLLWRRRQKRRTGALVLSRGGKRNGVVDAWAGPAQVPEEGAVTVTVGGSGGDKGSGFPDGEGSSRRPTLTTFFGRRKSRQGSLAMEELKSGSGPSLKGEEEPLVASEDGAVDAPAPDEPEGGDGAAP
CD43 on human peripheral T cells (human), sequence (P16150 20-400): as above
CD43 expressed on the surface of NCI-N87 gastric cancer cells (human), sequence (P16150 20-400): as above
CD43 on Jurkat cells (lymphoblastoid leukemia cell line; ATCC TIB-152) (human), sequence (P16150 20-400): as above

Turning to “MEM-59 (anti-CD43; Biovendor, Candler, NC) (antibody)”, the % of Binding in [1] was over 70%; in assay [2], over 80%.

B1: monoclonal antibody 5F1 (antibody, V domains shown)
VH: EVQLQQSGPELVKPGASVRMSCTASGYTFTSYVMHWIKQKPGQGLDWIGYINPYNGGTQYNEKFKGKATLTSDKSSSTAYMELSSLTSEDSAVYYCARRTFPYYFDYWGQGTTLTVSS
VL: DVLMTQTPLSLPVSLGDQASISCRSSQSILHSNGNTYLEWYLQKPGQSPKLLIYKVSNRFSGVPDRFSGSGSGTDFTLKISRVEAEDLGVYYCFQGSHAPLTFGAGTKLELK
notes: also called m5F1; m133-5F1
For B1, the Mean Fluorescence Intensity is 888 in assay [3]; 60.3 in assay [4]; 1000 in [6]; 9.78 in assay [17]; 21.7 in assay [18]; 733 in [19]. The Mean Fluorescence Intensity in [28] was 825; in [29], 1030; in assay [30], 129. Also, the % of Binding in [5] was over 80%; in [16] it was under 10%; in [1] it was over 80%; in assay [2], under 10%. The binding result in assay [7], in [8], in assay [9], in [10], in [11] and in assay [12] was “binds” in each case. For the same molecule, the binding result in assay [13] is listed as “binds”; in assay [14], “binds”; in [15], “binds”; in assay [21], “binds”; in [22], “binds”; in assay [23], “no binding”. Besides, the binding result in assay [24], in assay [25], in [26] and in [27] was “no binding” throughout. Also, in assay [20], the % Apoptosis (annexin-V+) is over 40%.

The values above are taken from patent US20160139131A1 (BIOALLIANCE C V, published 2016).
